Target: nrl_human NRL (UniProt P54845)
Sequence (P54845 whole entry): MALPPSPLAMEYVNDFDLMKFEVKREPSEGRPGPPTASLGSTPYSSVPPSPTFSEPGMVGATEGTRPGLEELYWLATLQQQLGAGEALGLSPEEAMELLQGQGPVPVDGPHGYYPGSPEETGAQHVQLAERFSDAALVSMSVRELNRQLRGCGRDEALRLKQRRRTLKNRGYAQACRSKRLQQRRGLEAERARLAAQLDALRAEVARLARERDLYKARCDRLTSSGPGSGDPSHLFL

Cone-rod homeobox protein (Bos taurus (Bovine)), Q9XSK0 R90W, sequence (Q9XSK0 whole entry R90W): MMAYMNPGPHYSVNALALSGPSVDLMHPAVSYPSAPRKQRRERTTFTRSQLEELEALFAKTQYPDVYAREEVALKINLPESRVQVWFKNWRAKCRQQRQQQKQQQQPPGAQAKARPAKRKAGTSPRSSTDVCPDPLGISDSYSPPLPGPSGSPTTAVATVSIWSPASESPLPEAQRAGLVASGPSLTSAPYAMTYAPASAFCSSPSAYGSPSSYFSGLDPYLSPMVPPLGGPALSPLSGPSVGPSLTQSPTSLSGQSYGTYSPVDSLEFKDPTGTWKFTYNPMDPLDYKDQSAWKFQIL
Cone-rod homeobox protein (Bos taurus (Bovine)), Q9XSK0 R41W, sequence (Q9XSK0 whole entry R41W): as the sequence (Q9XSK0 whole entry R90W) above, with R41W, W90R counted along it

| effect of a mutation on the interaction | Substance |
| --- | --- |
| decreasing interaction | Cone-rod homeobox protein (Bos taurus (Bovine)), Q9XSK0 R41W |
| decreasing interaction | Cone-rod homeobox protein (Bos taurus (Bovine)), Q9XSK0 R90W |

Source: IntAct's records for PubMed 10887186
